The supplement of paper PMC10126150
± gives the standard deviation of the averaged measurements.

Test system: ATP
Test: switch fluorescence ratio, 500 uM ATP over buffer (Cy3 cluster intensity, sum of 5 cycles each) (fold (ratio)); higher = stronger signal-on switching upon ATP binding; sequences stand for … in TCGTCGGCAGCGTCAGATGTGTATAAGAGACAGTTTTTTTTTTTTTTTTTTTTTTTTT…TC
Details: aptamer strand: ATP DNA aptamer (quencher-CACCTGGGGGAGTATTGCGGAGGAAGG + anchor), 100 nM annealed; ATP concentration: 500 uM
Outline: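 Exposure to 500 uM ATP lasted 15 min at 22 °C before imaging, and a selection-buffer image was taken beforehand, for Cy3-labelled switching-strand clusters on a modified Illumina MiSeq flow-cell annealed to 100 nM quencher-labelled ATP aptamer. Five buffer/ATP cycles were run with NaOH stripping and re-annealing between them. The fluorescence ratio per cluster is summed target-cycle over summed buffer-cycle Cy3 intensity, averaged per switch-domain sequence. Clusters outside 100-1000 RFU were excluded.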

Row | Sequence | switch fluorescence ratio
1 | TACAAGCTGT | 1.01 ± 0.014
2 | GGGATCTGGT | 1.002 ± 0.0098
3 | AAAGTATTTT | 1.03 ± 0.067
4 | GTTATATAAG | 0.984 ± 0.011
5 | AAGCTCTGTG | 0.95 ± 0.027
6 | AGTCTGGGGG | 0.959 ± 0.011
7 | CCCGGGGGCT | 1.41 ± 0.032
8 | TGTATGGGGT | 0.973 ± 0.018
9 | GTGACTTTTA | 1.01 ± 0.035
10 | GCGGGTTGGG | 0.984 ± 0.047
11 | GCCCCCCACA | 1.1 ± 0.048
12 | GAAGCAGCAG | 1.1888 ± 0.00054
13 | AGAAGGGGGT | 1.02 ± 0.035
14 | CGCGTTAGA | 1.04 ± 0.017
15 | TGTTTGGTTA | 0.995 ± 0.017
16 | ACAAATTGGG | 1.03 ± 0.092
17 | TTAATAGTGG | 1.03 ± 0.073
18 | GTTGACCTCG | 0.992 ± 0.03
19 | AGGAGTATTT | 1 ± 0.024
20 | TTTATGGTCC | 1.02 ± 0.029
21 | CACGTTTGGG | 1.01 ± 0.027
22 | CGGAAATGGG | 1.023 ± 0.0022
23 | CGTTGGCCGT | 1.03 ± 0.085

Row | Sequence | switch fluorescence ratio
24 | TGATGTTTTT | 1.01 ± 0.024
25 | CGTTAGTTTT | 0.9924 ± 0.0021
26 | AGTGAATTCA | 1.016 ± 0.0062
27 | GTCTTTGTTA | 1.01 ± 0.022
28 | GATTTTCTTG | 1.03 ± 0.017
29 | CTCTTTGGGG | 0.976 ± 0.013
30 | ACTAAGGGG | 1.25 ± 0.35
31 | GCTGGAGGTC | 1.01 ± 0.03
32 | GATTGTATCA | 0.99 ± 0.014
33 | ATGGTGTTAT | 0.989 ± 0.014
34 | CGTTGGGGTG | 1.03 ± 0.063
35 | GTTCGGGGAC | 1.026 ± 0.0094
36 | GCAAATTTTA | 1.02 ± 0.015
37 | GACGGCTGGA | 1.007 ± 0.0029
38 | ATTTGAGGTG | 1.03 ± 0.038
39 | CGTATGAAGC | 0.972 ± 0.02
40 | CCTTTTTGGG | 0.9831 ± 0.0032
41 | TACTATGGTC | 1.01 ± 0.07
42 | GGGGATGCAT | 1.01 ± 0.059
43 | GGGCTAAAGA | 1.01 ± 0.013
44 | TTACTGATCG | 1.025 ± 0.0073
45 | TGAGGGGT | 0.958 ± 0.027
46 | TAATCATGGT | 0.969 ± 0.024

Row | Sequence | switch fluorescence ratio
47 | TAGGGCCACG | 1.01 ± 0.018
48 | ATATTAAAGT | 1.038 ± 0.0047
49 | ATGAGGTAGG | 1.03 ± 0.05
50 | CGCATTGTGG | 1.02 ± 0.042
51 | GTGTTCTAAA | 1.03 ± 0.041
52 | CAACATCTAT | 1.02 ± 0.053
53 | CGGTTGGGTT | 0.99659 ± 6.3e-05
54 | GAGCAAAAGG | 1.004 ± 0.0058
55 | GCGTGGAGGA | 1.05 ± 0.026
56 | TAATGTAAAA | 0.992 ± 0.01
57 | CAGGGGGGGT | 1.03 ± 0.061
58 | TGCTGGGGAA | 1.01 ± 0.028
59 | TAGGGTAAGT | 0.9905 ± 0.0089
60 | TTACAAGGGC | 1.013 ± 0.0087
61 | ATCAACGGCA | 1.07 ± 0.023
62 | TTTTTGGGAA | 0.996 ± 0.029
63 | CCATACGGGG | 0.998 ± 0.023
64 | GGTTTCAGGG | 0.986 ± 0.013
65 | TTTAAGAGTG | 0.992 ± 0.0031
66 | TTTTACGGGG | 1.02 ± 0.03
67 | CGTCTATGGG | 1 ± 0.014
68 | ATTTTCTATG | 0.978 ± 0.029
69 | GAGGTCATTC | 0.999 ± 0.029

Row | Sequence | switch fluorescence ratio
70 | GACATAGCGG | 1.07 ± 0.03
71 | GGGGTACCAC | 1.31 ± 0.4
72 | GTAATGGGGA | 1.02 ± 0.015
73 | TAGGTGCGGT | 0.989 ± 0.015
74 | TTATACTCTT | 1.01 ± 0.026
75 | AGGGAAAGTC | 0.9854 ± 0.0058
76 | ACGAGCGTGG | 1 ± 0.011
77 | GCTTGGACGG | 1.02 ± 0.055
78 | GTCATAGGGG | 1.01 ± 0.026
79 | GTTGGAGGCT | 0.989 ± 0.096
80 | TTAGCGGTGT | 1.07 ± 0.14
81 | CAAATCTTGT | 1.03 ± 0.027
82 | GGTTAGCTGC | 0.991 ± 0.023
83 | TTCCGGTTGG | 1 ± 0.023
84 | TCAACGGGTA | 1.01 ± 0.021
85 | GCATTTTAGG | 0.967 ± 0.045
86 | TTGTGTC | 1.06 ± 0.023
87 | GTTATCCGGG | 1.01 ± 0.036
88 | AAGCGTTTTG | 0.988 ± 0.0017
89 | CTCAGATGAT | 0.988 ± 0.013
90 | GGACTCTAGG | 0.979 ± 0.027
91 | ATATGAGGTT | 0.977 ± 0.023
92 | ATGGGGACGG | 1.013 ± 0.0035

Row | Sequence | switch fluorescence ratio
93 | GGTTAATCGG | 0.9983 ± 0.0029
94 | TAAAACAGGA | 0.97 ± 0.017
95 | CTCCGAATTT | 2.17 ± 0.35
96 | GACGGCGTTC | 1.008 ± 0.0058
97 | CGTGGGGGTA | 0.996 ± 0.025
98 | GTTAGTTGTT | 0.987 ± 0.013
99 | GTAACCAAGA | 1.02 ± 0.0035
100 | CCTGTATCTT | 1.03 ± 0.018
101 | AGGGGTCTTA | 0.978 ± 0.02
102 | CGGAATTTTT | 0.971 ± 0.016
103 | GCTTTTTTTT | 1.01 ± 0.019
104 | AGGGTTAGGG | 1.02 ± 0.03
105 | CCATGCGATG | 1.21 ± 0.1
106 | GTAATGCTCA | 1.36 ± 0.062
107 | GGGTTGGTGG | 0.992 ± 0.029
108 | ATTGGAGTAT | 0.9776 ± 0.0089
109 | GTATGAGTAG | 0.992 ± 0.035
110 | CAATAGGCGC | 1.01 ± 0.021
111 | GTTTTCTTGG | 0.977 ± 0.013
112 | TTGTTTGTTC | 1.01 ± 0.034
113 | ACACCCGCGC | 1.45 ± 0.064
114 | AAGGTACGAA | 1.04 ± 0.011
115 | ATCACGGGGG | 1.02 ± 0.019

Row | Sequence | switch fluorescence ratio
116 | TAGCATCTGG | 0.98 ± 0.039
117 | TGCTTGTATT | 1.01 ± 0.027
118 | TACTTTATTT | 1.16 ± 0.21
119 | AGTTGAGTTT | 0.992 ± 0.026
120 | ATTCGGTCGA | 0.976 ± 0.039
121 | GAGGGGGCGG | 0.999 ± 0.025
122 | TTTAGATAAT | 1 ± 0.014
123 | TGGGAGAAGT | 0.983 ± 0.011
124 | GAGGTATGGA | 0.9842 ± 0.0019
125 | ATAGCAGGCG | 1.01 ± 0.027
126 | ATTGTTTTAG | 1.01 ± 0.025
127 | CAGAATTGGG | 0.967 ± 0.028
128 | GGGCGCCCCA | 0.976 ± 0.013
129 | GGTAGATTGG | 0.961 ± 0.015
130 | GAAAGTATGT | 1 ± 0.024
131 | GCCGGGATGC | 1.1 ± 0.11
132 | AGATGGGGTA | 0.9705 ± 0.0077
133 | CGCTTAGCCA | 1.01 ± 0.021
134 | TTTAAACGGA | 1.05 ± 0.081
135 | TACTCACTTC | 1.21 ± 0.035
136 | CTTTTGTAAT | 1.01 ± 0.014
137 | TCAATTCTGA | 1.002 ± 0.0075
138 | CACGAGAAGG | 1.03 ± 0.018

Row | Sequence | switch fluorescence ratio
139 | CTCAGGTGTT | 1.73 ± 1
140 | TATGTTTAAT | 0.994 ± 0.041
141 | CAGGGATTTT | 0.98 ± 0.022
142 | ACATATTTGA | 1.01 ± 0.03
143 | GTGTTCAAGG | 0.971 ± 0.015
144 | ATTTTATAGT | 1 ± 0.055
145 | GAGCTAAGGA | 0.981 ± 0.029
146 | CGCTTTGGAA | 0.964 ± 0.064
147 | TACAGATTTG | 1.01 ± 0.037
148 | GAGATAGGTT | 1.03 ± 0.073
149 | TAGCGGGTAC | 1.28 ± 0.087
150 | TTGCCTAAGC | 0.974 ± 0.016
151 | GGAGGGGGTT | 1.01 ± 0.051
152 | AGTTCGGCTA | 0.998 ± 0.036
153 | AATGGGTATC | 0.9923 ± 0.0088
154 | TGCTAGAAGT | 0.9792 ± 0.003
155 | GGCCAAATCC | 1.006 ± 0.0056
156 | GGGGGGAATG | 1 ± 0.03
157 | GGGGTTAAAG | 0.977 ± 0.022
